Laboratory results published in patent US20250195647A1 (CORBUS PHARMACEUTICALS, published 2025).

B1: huAb1 (antibody, V domains shown)
VH: QIQLVQSGSELKKPGASVKVSCKASGYTFTKYSMHWVRQAPGQGLEWMARINTETGNPTYADGFRGRFVVSLDTSVSTAYLQISSLKAEDTAVYYCAIFYYGRDTWGQGTTVTVSS
VL: DIVMTQSPDSLAVSLGERATINCKSSQSLLHSRSRKNYLAWYQQKPGQPPKLLIYWASTRESGVPDRFSGSGSGTDFTLTISSLQAEDVAVYYCKQSYNLLSFGQGTKLEIK
notes: also called anti-αvβ8 antibody
B2: muAb1 (antibody, V domains shown)
VH: B1 VH
VL: B1 VL
notes: also called murine-human hybrid monoclonal anti-αVβ8 antibody; murine compatible version of huAb1

What was measured:
integrin αVβ8 (human) = biological target: T1, integrin αVβ8 (human) (human, UniProt P06756 31-992; P26012 43-684); experiment: SPR, mAb captured on anti-Fc CM5 chip, integrin injected, 37 C, 1:1 fit
T1 construct: Integrin heterodimer injected as analyte in SPR; also called avb8
T1 sequence (P06756 31-992, chain 1 of 2): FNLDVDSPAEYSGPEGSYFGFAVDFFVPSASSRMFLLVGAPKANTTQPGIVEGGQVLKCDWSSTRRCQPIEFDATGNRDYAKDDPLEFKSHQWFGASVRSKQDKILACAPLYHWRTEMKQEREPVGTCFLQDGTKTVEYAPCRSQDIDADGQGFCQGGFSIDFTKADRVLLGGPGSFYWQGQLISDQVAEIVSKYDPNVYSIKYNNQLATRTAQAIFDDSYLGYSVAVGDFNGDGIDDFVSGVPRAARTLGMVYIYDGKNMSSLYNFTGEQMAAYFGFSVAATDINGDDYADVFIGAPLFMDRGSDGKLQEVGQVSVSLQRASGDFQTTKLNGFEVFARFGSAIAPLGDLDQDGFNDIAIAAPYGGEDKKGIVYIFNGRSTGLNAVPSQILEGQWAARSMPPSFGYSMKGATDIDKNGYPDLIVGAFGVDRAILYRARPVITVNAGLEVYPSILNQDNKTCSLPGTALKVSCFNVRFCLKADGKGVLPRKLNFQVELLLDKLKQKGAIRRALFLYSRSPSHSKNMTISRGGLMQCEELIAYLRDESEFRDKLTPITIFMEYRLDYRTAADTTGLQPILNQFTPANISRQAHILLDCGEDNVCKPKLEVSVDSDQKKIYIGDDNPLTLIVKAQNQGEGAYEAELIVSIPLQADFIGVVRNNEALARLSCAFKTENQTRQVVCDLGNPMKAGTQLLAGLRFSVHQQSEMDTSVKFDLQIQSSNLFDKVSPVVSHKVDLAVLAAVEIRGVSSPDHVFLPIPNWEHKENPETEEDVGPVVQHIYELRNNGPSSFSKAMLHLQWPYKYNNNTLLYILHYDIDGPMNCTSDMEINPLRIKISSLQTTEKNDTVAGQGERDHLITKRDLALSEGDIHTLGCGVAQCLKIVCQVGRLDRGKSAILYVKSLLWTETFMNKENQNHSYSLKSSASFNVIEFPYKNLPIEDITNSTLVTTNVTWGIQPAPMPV
T1 sequence (P26012 43-684, chain 2 of 2): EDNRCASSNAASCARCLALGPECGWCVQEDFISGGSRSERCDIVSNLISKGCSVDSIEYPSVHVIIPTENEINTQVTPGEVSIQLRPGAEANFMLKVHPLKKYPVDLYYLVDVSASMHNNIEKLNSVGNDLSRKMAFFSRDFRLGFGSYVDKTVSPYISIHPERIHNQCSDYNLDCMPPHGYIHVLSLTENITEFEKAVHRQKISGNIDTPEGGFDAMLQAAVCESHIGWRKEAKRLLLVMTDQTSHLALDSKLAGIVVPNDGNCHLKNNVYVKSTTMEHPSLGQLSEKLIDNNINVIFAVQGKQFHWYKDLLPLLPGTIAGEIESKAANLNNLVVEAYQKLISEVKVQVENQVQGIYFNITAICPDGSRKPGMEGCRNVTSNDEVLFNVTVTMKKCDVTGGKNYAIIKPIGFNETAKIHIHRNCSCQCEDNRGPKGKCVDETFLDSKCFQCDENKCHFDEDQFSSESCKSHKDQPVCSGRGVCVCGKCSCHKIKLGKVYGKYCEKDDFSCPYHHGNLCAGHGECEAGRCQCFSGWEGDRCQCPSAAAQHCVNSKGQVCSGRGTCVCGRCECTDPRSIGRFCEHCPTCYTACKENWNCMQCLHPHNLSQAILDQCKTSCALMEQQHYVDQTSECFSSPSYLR
Experimental: (§1) Antibodies were assessed by surface plasmon resonance (SPR) for the ability to bind to integrin heterodimers. mAbs were immobilized on an anti-Fc CM5 sensor chip, and integrins (0.39-50 nM for and 200 nM for others) were injected at a flow rate of […] for a contact time of 180 s and dissociation time of 400 s, at 37° C. Data were fit (grey lines) to a 1:1 antibody:ligand binding model to determine Kd.

integrin αVβ8 (murine) = biological target: T2, integrin αVβ8 (murine) (murine, UniProt P43406 31-988; Q0VBD0 43-681); experiment: as above
T2 construct: Integrin heterodimer injected as analyte in SPR; also called mαVβ8
T2 sequence (P43406 31-988, chain 1 of 2): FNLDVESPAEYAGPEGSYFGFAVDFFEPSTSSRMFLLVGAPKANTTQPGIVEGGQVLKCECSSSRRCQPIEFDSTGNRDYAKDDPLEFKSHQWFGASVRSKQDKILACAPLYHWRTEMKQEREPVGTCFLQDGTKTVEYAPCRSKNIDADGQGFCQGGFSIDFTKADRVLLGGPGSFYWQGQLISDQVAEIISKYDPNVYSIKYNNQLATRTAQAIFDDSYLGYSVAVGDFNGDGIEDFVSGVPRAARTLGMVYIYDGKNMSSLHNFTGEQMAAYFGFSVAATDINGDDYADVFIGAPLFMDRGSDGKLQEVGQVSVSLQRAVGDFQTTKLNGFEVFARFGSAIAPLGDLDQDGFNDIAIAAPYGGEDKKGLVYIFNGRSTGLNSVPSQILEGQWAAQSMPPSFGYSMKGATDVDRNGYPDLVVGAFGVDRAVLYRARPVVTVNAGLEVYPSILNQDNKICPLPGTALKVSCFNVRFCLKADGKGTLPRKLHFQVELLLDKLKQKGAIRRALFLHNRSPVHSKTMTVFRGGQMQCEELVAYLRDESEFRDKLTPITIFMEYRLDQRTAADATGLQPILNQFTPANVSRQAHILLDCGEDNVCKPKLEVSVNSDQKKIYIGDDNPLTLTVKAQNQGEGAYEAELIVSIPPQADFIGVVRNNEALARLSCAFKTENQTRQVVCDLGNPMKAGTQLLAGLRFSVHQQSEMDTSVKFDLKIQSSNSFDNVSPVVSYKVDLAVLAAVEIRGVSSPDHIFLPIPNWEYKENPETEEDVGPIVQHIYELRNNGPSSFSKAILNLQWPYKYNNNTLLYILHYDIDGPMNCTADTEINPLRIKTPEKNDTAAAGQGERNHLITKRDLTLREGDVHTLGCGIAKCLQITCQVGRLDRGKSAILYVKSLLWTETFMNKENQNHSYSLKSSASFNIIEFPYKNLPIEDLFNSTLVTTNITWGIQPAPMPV
T2 sequence (Q0VBD0 43-681, chain 2 of 2): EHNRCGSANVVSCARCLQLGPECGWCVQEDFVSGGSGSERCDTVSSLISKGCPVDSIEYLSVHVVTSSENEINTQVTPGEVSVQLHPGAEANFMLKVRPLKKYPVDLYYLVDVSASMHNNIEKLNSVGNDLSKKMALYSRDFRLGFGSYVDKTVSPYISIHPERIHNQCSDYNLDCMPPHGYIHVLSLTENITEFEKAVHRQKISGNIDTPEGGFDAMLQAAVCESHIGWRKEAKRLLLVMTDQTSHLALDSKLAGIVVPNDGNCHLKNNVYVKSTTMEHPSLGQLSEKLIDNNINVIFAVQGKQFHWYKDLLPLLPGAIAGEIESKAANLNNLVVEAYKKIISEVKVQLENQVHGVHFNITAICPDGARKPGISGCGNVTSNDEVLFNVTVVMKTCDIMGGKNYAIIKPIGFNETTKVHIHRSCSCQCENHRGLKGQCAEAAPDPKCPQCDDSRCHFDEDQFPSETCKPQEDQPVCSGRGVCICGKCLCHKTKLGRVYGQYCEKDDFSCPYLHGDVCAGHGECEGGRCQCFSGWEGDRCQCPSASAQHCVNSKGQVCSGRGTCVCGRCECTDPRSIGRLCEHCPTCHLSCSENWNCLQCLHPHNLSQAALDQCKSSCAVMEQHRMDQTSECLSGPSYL
Experimental: as §1

[1] = biological target: T3, αvβ8 expressed on the surface of LN229 cells (UniProt P06756 31-1048; P26012 43-769); experiment: cell-based competition (adhesion) assay: LN229 cells expressing αvβ8 on plate-immobilized L-TGFβ, Crystal Violet readout
T3 construct: whole, on cells; also called avb8 on LN229 cells
T3 sequence (P06756 31-1048, chain 1 of 2): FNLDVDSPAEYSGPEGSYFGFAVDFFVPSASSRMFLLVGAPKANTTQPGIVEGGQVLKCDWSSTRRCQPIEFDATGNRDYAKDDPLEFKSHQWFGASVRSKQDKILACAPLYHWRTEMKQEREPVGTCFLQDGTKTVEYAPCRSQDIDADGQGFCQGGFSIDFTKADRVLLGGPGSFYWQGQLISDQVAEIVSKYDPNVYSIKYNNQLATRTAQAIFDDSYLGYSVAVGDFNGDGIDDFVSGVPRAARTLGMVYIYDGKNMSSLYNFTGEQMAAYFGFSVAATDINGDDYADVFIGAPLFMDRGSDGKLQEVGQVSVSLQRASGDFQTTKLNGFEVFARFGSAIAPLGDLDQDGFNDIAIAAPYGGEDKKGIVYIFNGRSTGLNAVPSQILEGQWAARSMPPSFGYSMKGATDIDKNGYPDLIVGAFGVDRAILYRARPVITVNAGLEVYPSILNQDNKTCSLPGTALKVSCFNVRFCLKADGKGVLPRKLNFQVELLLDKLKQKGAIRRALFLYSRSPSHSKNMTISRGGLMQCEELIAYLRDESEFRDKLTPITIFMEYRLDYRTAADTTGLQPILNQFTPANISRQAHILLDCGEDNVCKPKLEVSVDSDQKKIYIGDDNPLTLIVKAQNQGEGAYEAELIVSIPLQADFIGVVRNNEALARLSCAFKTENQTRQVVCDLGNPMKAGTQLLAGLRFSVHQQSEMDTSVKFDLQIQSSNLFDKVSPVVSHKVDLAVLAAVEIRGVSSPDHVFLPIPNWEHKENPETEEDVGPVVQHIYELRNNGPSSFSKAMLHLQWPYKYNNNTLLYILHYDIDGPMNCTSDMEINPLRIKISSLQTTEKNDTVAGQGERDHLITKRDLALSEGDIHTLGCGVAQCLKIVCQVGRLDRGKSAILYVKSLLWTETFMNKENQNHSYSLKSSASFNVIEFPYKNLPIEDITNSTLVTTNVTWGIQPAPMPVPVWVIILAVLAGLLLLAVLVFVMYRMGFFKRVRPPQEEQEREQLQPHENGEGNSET
T3 sequence (P26012 43-769, chain 2 of 2): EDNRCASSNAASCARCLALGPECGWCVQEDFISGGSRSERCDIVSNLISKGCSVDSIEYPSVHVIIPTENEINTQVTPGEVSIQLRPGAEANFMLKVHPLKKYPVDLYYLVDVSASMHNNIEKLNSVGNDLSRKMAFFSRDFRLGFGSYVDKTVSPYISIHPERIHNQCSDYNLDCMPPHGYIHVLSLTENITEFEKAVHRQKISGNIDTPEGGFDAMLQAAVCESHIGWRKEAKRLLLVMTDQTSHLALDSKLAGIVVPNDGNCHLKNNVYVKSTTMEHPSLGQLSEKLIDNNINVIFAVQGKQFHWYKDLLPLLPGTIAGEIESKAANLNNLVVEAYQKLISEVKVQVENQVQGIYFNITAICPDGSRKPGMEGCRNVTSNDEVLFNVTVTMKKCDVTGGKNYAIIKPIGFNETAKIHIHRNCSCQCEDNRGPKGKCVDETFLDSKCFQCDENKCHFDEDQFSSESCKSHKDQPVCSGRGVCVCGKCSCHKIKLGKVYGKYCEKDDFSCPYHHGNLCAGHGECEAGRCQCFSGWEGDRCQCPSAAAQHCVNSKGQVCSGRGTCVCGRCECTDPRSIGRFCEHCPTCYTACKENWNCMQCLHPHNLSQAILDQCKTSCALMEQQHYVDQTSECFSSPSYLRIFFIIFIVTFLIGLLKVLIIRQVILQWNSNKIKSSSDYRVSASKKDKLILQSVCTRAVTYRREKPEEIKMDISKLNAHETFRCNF
Experimental: (§2) Exemplary antibodies of the disclosure were evaluated for their ability to block binding of the latent form of TGFβ (L-TGFβ) to in a cell-based competition assay. TGFβ is ubiquitously expressed in the latent form and L-TGFβ promotes an immune suppressive phenotype within the tumor microenvironment. L-TGFβ was immobilized on a polystyrene plate and incubated with LN229 cells expressing and increasing concentrations of muAb1 for 30 mins at 37° C. Bound LN229 cells were quantified by Crystal Violet. Data were fit to a 4-parameter displacement curve to determine IC₅₀. […] The affinities of the two antibodies are similar as measured in this assay.

[2] = biological target: T3, αvβ8 expressed on the surface of LN229 …; experiment: cell-based competition (adhesion) assay: LN229 cells expressing αvβ8 on plate-immobilized L-TGFβ with increasing antibody, bound cells quantified by Crystal Violet, 4-parameter fit
Experimental: as §2

Row | Binder | Kd (integrin αVβ8 (human)) [nM] | Kd (integrin αVβ8 (murine)) [nM] | IC50 (read off the curve) [1] [nM] | IC50 [2] [nM]
1 | B1 | < 5 | < 5 | ~4 | < 5
2 | B2 | < 15 | < 15 | ~1 | < 5
